Assay results from the nanobody polyreactivity screen of Harvey et al. (2022).

Test: yeast display, Sf9 membrane polyspecificity reagent, FACS + sequencing; frameworks hold sequencing errors
In short: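 Nanobodies from a synthetic yeast display library (Saccharomyces cerevisiae BJ5465), induced 36–48 hours with galactose, were stained 1 hour at 4 °C with 10% biotinylated, detergent-solubilized Sf9 membrane reagent, enriched on streptavidin microbeads, then FACS-sorted. Anti-HA (expression) and streptavidin (reagent binding) fluorescence set low and high (top ~1%) gates. Polyreactivity labels come from the gate of origin. Genes were colony-PCR amplified, MiSeq 2 × 250 sequenced and filtered by CDR length.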

Sequence | polyreactivity (PSR sort gate)
QVQLVESGGGLVQAGGSLRLSCAASGRIFPVYAMGWYRQAPGKERELVAAIDYSDGSTYYADSVKGRFTISRDNAKNTVYLQMNSLKPEDTAVYYCAADYDAIYLWWGYDYWGQGTQVTVSS | low polyreactivity
QVQLVESGGGLVQAGGSLRLSCAASGRIFPVYAMGWYRQAPGKERELVAAISKRDGSTSYADSVKGRFTISRDNAKNTVYLEMNSLKPEDTAVYYCAATYLLERPTSIHPRYDYWGQGTQVTVSS | low polyreactivity
QVQLVESGGGLVQAGGSLRLSCAASGRIFPVYTMGWYRQAPGKERELVAAISGNGASTYYADSVKGRFTISRDNAKNTVYLQMNSLKPEDTAVYYCAAYFYYWGSTFVRYEYWGQGTQVTVSS | high polyreactivity
QVQLVESGGGLVQAGGSLRLSCAASGRIFPWYTMGWYRQAPGKERELVAAITSGGNTDYADSVKGRFTISRDNAKNSVYLQMNSLKPEETAVYYCAAGGYPGTTYYGYDYWGQGTQVTVSS | low polyreactivity
QVQLVESGGGLVQAGGSLRLSCAASGRIFPYMGWYRQAPGKERELVAAISSRGGNTYYADSVKGRFTISRDNAKNTVYLQMNSLKPEDTAVYYCNKVKYTWYDWGQGTQVTVSS | high polyreactivity
QVQLVESGGGLVQAGGSLRLSCAASGRIFPYYAIGWYRQAPGKERELVASTNYADSVKGRFTISRDNAKNTVYLQMNSLKPEDTAVYYCNADSVYPPGSDYVVRDGNFDYWGQGTQVTVSS | low polyreactivity
QVQLVESGGGLVQAGGSLRLSCAASGRIFPYYAKRWYRQAPGKERELVAAITTRGGSTYDADSVKGRFTISRDNAKNTVYLQMNSLKPEDTAVYYCAAVTFGRMEYCGQGTQVTVSS | low polyreactivity
QVQLVESGGGLVQAGGSLRLSCAASGRIFPYYAMGWSRQAPGKERELVAAITSGGTTYYADSVKGRFTISRDNAKNTVYLQMNSLKPEDTAVYYCEYDYWGQGTQVTVSS | low polyreactivity
QVQLVESGGGLVQAGGSLRLSCAASGRIFPYYAMGWYRPAPGKERELVATISTAGSTNYADSVKGRFTISRDNAKNTVYLQMKSLKPEDTAVYYCATRNTWYHRGYDYWGQGTQVTVSS | low polyreactivity
QVQLVESGGGLVQAGGSLRLSCAASGRIFPYYAMGWYRQAPGKEREFVAAITSSGGTTYYADSVKGRFTISRDNAKNTVYLQMNSLKPEDTAVYYCFAVRLYALYAGRPYDYWGQGTQVTVSS | low polyreactivity
QVQLVESGGGLVQAGGSLRLSCAASGRIFPYYAMGWYRQAPGKERELVAAISSGTSTYYADSVKGRFTISRDNANNTVYLKMNSLKQEDTAVYYSNGRHRRGRFTHDYDYWGQGTQVTVTS | low polyreactivity
QVQLVESGGGLVQAGGSLRLSCAASGRIFPYYAMGWYRQAPGKERELVAAITRGGSRTYYADSVKGRFTISRDNAKNTVYLQMNSLKPEDTAVSYCARLDGFSASDHDYGGQGTQVTVSS | high polyreactivity
QVQLVESGGGLVQAGGSLRLSCAASGRIFPYYDMGWYRQAPGKERELVAAITSSGSTFYADSVKGRFTISRDNAKNTVYLQMNSLKPEDTAVYYCNTRDIRVRPYDYWGQGTQVTVSS | low polyreactivity
QVQLVESGGGLVQAGGSLRLSCAASGRIFQAYAMGWYRQAPGKERELVAAISRSGGGTYYADSVKGRFTISRDNAKNTVYLQMNSLKPEDTAVYYCNARGSTARGRGYWGQGTQVTVSS | high polyreactivity
QVQLVESGGGLVQAGGSLRLSCAASGRIFQAYAMGWYRQAPGKERELVASISYRGGITYYADSVKGRFTISRDNAKNTVYLQMNSLKPEDTAVYYCAAGRKGSMYYWGQGTQVTVSS | high polyreactivity
QVQLVESGGGLVQAGGSLRLSCAASGRIFQGYAMGWYRPAPGKERELGASIRTGGTTNYADSVKGRFTISRDNAKNTVYLQMNSLTPEDTAVYYCAKRYYGWYGNFDYWGQGTQVTVSA | high polyreactivity
QVQLVESGGGLVQAGGSLRLSCAASGRIFQGYAMGWYRQAPGKERELVAAITRSGGSTYYADSVKGRFTISRDNAKNTVYLQMNSLKPEDTAVYYCAASHYGLLEYWGQGTQVTVSS | low polyreactivity
QVQLVESGGGLVQAGGSLRLSCAASGRIFQGYVMGWYRQAQGQERELVAAITTGGSTYYADSVKGRFTISRDNAKNTVYLQMNSLKPEDTAVYYCNAVVYVSGYNPYIFGYWGQGTQVTVSS | low polyreactivity
QVQLVESGGGLVQAGGSLRLSCAASGRIFQKYAMGWYRQAPGKESELVAAISSGDSTYADSVKGRFTISRDNAKNTVYLQMNSLIPEDTAVYYCAVDLYDPWWYSYIGEYEYWGQGTQVSVSS | low polyreactivity
QVQLVESGGGLVQAGGSLRLSCAASGRIFQNYAMGWYRQAHGKERELVATISSGVSTYYADSVKGRFTISRDNAKNTVYLQMNSLKPEDTAVNYCAAYVPWFEMDYWGQGTQVTVSS | low polyreactivity
QVQLVESGGGLVQAGGSLRLSCAASGRIFQQYAMGWYRQAPGKEREVVAAISRGGSTYYADSVKGRFTISRDNAKNTVYLQMNSLKPEDTAVYYCAVRSRRGLKYDYWGQGTQVTVSS | high polyreactivity
QVQLVESGGGLVQAGGSLRLSCAASGRIFQRNAMGWYRQEPRKEREFVAAITKSGGGTYADSVKGRFTISRDNAKNTVYLQMNSLKPEDTAVYFCAADSRGEDYYYWGQGTQVTVSS | high polyreactivity

Sequence | polyreactivity (PSR sort gate)
QVQLVESGGGLVQAGGSLRLSCAASGRIFQRNVMGWYRQAPGKERELVASITGGGTTNYAHSVKGRFTISRDNAKNTVYLPRNSLKPEDTAVYYCNRRQNVGRVSQYEYWGQGTQVTVSS | low polyreactivity
QVQLVESGGGLVQAGGSLRLSCAASGRIFQRYAMGWYRQSPGKERELVAGITSSGGSTYYADSVKGRFTISRDNAKNTVYLQMNSLKPEDTAVSYCNAGGELCYYGYRAGCTTRSYDYWGQGTLVTVSS | low polyreactivity
QVQLVESGGGLVQAGGSLRLSCAASGRIFQSYAMGWYRQAPGKERELVAGISTRGGNTYYADSVKGRFTISRDNAKNTVYLQMNSLKPEDTAVYYCAKRDYGRFASDYWGQGTQVTVSS | high polyreactivity
QVQLVESGGGLVQAGGSLRLSCAASGRIFQWYAMGWNRQAPGKERELVAAISWRGGSTYYADSVKGRFTISRDNAKNTVYLQMNSLKPEDTAVYYCNAVRRASSGYDYWGHGTQVTVSS | high polyreactivity
QVQLVESGGGLVQAGGSLRLSCAASGRIFQYNAMGWYRQAPGKERELVAAIRRGGGSTYYADSVKGRFTISRDNAKNTVYLEMNSLKPEDTAVYYCAARRIRVSFYPEYDYWGQGTQVTVSS | low polyreactivity
QVQLVESGGGLVQAGGSLRLSCAASGRIFQYNAMGWYRQAPGKERELVAAIRRGGGSTYYADSVKGRFTISRDNAKNTVYLQMNSLKPEDTAVYYCADRRQRVSFYPEYDYWGQGTQVTVSS | low polyreactivity
QVQLVESGGGLVQAGGSLRLSCAASGRIFQYYAMGWYRQAPGKEREFVAAITGRGTRTYADSVKGRFTISRDNAKYTVYLQMNSLKPEDTAVYYCAKPFHYGRSYRSKMDYWGQGTQVTVSS | high polyreactivity
QVQLVESGGGLVQAGGSLRLSCAASGRIFQYYAMGWYRQAPGKERELVAAITRSGGRTYYADSVKGRFTISRDNAKNTVFLQMNSLKPEDTAVYYCAARDWYYTMYYWGQGTQVTVSS | high polyreactivity
QVQLVESGGGLVQAGGSLRLSCAASGRIFQYYVMGWYRQAPGKERELVAAIRSGGTTNYADSVKGRFTISRDNAKNTVYLQMNSLKPEDTAVYYCNARYRNTFYTRRYAYWGQGTQVTVSS | high polyreactivity
QVQLVESGGGLVQAGGSLRLSCAASGRIFRANAMGWYRQAPGKERELVAGISYRGGSTYYADSVKGRFTISRDNAKNTVYLQMNSLKPEDTAVYYCAVRSSPELRYHYEYWGQGTQVTVSS | low polyreactivity
QVQLVESGGGLVQAGGSLRLSCAASGRIFRANAMGWYRQAPGKERELVAGITRRGGSTNYADSVKGRFTISRDNAKNTVYLQMNSLKPEDTAVYYCNRDVSLSTSIRMDYWGQGTQVTVSS | low polyreactivity
QVQLVESGGGLVQAGGSLRLSCAASGRIFRAYTMGWYRQAPGKARELVAAISRSTGSTNYADSVKGRFTISRDNAKNTVYLQMNSLKPEDTAVYFCNARSRWYLVGQQSTRLDYWGQGTQVTVSS | high polyreactivity
QVQLVESGGGLVQAGGSLRLSCAASGRIFRFYAMGWYRQAPGKERELVAAITRNVGSTFYADSVKGRFTISRDNAKNTVYLQMNSLKPEDTAVYYCAAESDYYYRYTFDYWGQGTLVTVSS | low polyreactivity
QVQLVESGGGLVQAGGSLRLSCAASGRIFRFYAMGWYRQAPGKERVLVAAITRNVGSTFYADSVKGRFTISRDNAKNTVYLQMNSLKPEDSAVFYCAAESDYYYRYTFDYWGQGTQVTVSS | low polyreactivity
QVQLVESGGGLVQAGGSLRLSCAASGRIFRGNAMGWYRQAPGKERELVAAILTGVSTYYADSVKGRFTISRDNAKNTVYLQMNSLNPEDTAVYYCADERPSRRSVYEYWGQCTQVTVSS | low polyreactivity
QVQLVESGGGLVQAGGSLRLSCAASGRIFRGNAMVWSRQAPGKERELVASISWRGASTDYADSVKGRFTISRDNAKNTVYLQMNRMKPEDTAVYYCAARVVWRISVYYVIDYNYWGQGTQVTVSS | high polyreactivity
QVQLVESGGGLVQAGGSLRLSCAASGRIFRGNGMGWYRQAPGKERELVAAIRRSGGSTYYADSVKGRFTISRDNAKNTVYLQMNSLKPDDTAVFYCNADYTVVLSRVIYARGYWGQGTQVTVSS | high polyreactivity
QVQLVESGGGLVQAGGSLRLSCAASGRIFRGNVMGWYRQAPGKERELVAAINSGASSNYADSVKGRFTISRDNAKNTVYLQMNSLKPEDTAVYYCAKRGPRSYFQPCYDYWGQGTQVTVSS | high polyreactivity
QVQLVESGGGLVQAGGSLRLSCAASGRIFRGYAMGLYRQAPGKEREFVAAISWSGGDTYYADSVKGRFTISRDTAKNTVYLQMNSLKPEDTAVYYCATEYRLIPGPFVWPYDYWGQGTQVTVSS | high polyreactivity
QVQLVESGGGLVQAGGSLRLSCAASGRIFRGYAMGWYRQAPGKERELVAAISGSGGSTYYADSVKGRFTISRDNAKNTVYLQMMSLKPEDTAVYYCAADQQSTGDWAGDYWGQGTQVTVSS | low polyreactivity
QVQLVESGGGLVQAGGSLRLSCAASGRIFRGYAMGWYRQAPGKERELVARITSSGSTNYADSVKGRFTISRDNAKNTVYLQMNSLKPEDTAVYYCAADKYYWGTGVWMDYWGQGTQVTVSS | high polyreactivity
